Reference: the supplement of paper PMC12042874
± gives the uncertainty stated by the source.

test: amyloid nucleation score (Sup35N fusion, yeast selection) (log enrichment); library NNK1; higher = more nucleation; inactive = no reads after selection
Outline: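 Sup35N was fused to peptides of 20 random codons and expressed in psi-negative yeast, which were induced with 100 μM copper sulfate for 24 hours and then grown on medium lacking adenine and uracil for 7 days at 30°C. Plasmid inserts from input and output were sequenced on Illumina. The nucleation score is the DiMSum log enrichment of output over input reads, centred on the mode score of non-aggregating sequences. Sequences with under 100 input reads were left out, and random libraries had three technical output replicates.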

**Q.** Which amyloid nucleation score does the source give for YFHIESGLYYTWFMLYGPGR here?
**A.** 0.154 ± 0.61

**Q.** Which amyloid nucleation score does the source give for AKSQYMVVVYMPIYLWQCYI here?
**A.** 4.01 ± 0.14

**Q.** For RTCYNRDTEMSRGCYTMRVA, which amyloid nucleation score is on record?
**A.** -0.554 ± 0.77

**Q.** Which amyloid nucleation score does the source give for MEPLVTQCRHKG here?
**A.** -1.31 ± 1.1

**Q.** For VWYTRGRRHRGTTYMSNRLW, which amyloid nucleation score is on record?
**A.** -0.28 ± 0.31

**Q.** For RNFCSSEGPSRHERLCNTKR, which amyloid nucleation score is on record?
**A.** -0.542 ± 0.68

**Q.** Which amyloid nucleation score does the source give for TVFYMRPVGSGTGNLNLLQL here?
**A.** 0.906 ± 1

**Q.** With KYWWY as the substance, how does the amyloid nucleation score read?
**A.** 0.265 ± 0.2

**Q.** Which amyloid nucleation score does the source give for GQVHRFIWLVT here?
**A.** -0.11 ± 0.3

**Q.** With DNKFYHKVTDRRFLIPIFQI as the substance, how does the amyloid nucleation score read?
**A.** -0.331 ± 0.37

**Q.** With MSCTVHLGLFMESTNHYCMC as the substance, how does the amyloid nucleation score read?
**A.** inactive

**Q.** Which amyloid nucleation score does the source give for EPIYCFCDCNGSRWALYVSV here?
**A.** 0.421 ± 0.54

**Q.** With HRDNH as the substance, how does the amyloid nucleation score read?
**A.** -0.253 ± 0.35

**Q.** For CLSRLLVLKYLSTWSKKWVW, which amyloid nucleation score is on record?
**A.** -0.115 ± 0.25

**Q.** For WVIVRYRNFCVCGRPSKDIG, which amyloid nucleation score is on record?
**A.** 0.263 ± 0.32

**Q.** For NCSGCIWVRMCLNHFGVCTD, which amyloid nucleation score is on record?
**A.** 2.38 ± 0.16

**Q.** With WATLALSR as the substance, how does the amyloid nucleation score read?
**A.** 0.5 ± 0.4

**Q.** For LVMHVSWNVFIAVVLIFKDG, which amyloid nucleation score is on record?
**A.** 0.375 ± 0.43

**Q.** With PYSWVEKASY as the substance, how does the amyloid nucleation score read?
**A.** -0.322 ± 0.78

**Q.** For VTCWPDICRSFYMIVLHCFR, which amyloid nucleation score is on record?
**A.** 0.141 ± 0.7

**Q.** Which amyloid nucleation score does the source give for HCTLHSSVCSSGCWIE here?
**A.** 1.1 ± 0.97

**Q.** With SCGLINWLRVYHLLSLNSGS as the substance, how does the amyloid nucleation score read?
**A.** 2.31 ± 0.1

**Q.** For WLVQAQALQGWKCFLHKISF, which amyloid nucleation score is on record?
**A.** -0.186 ± 0.48

**Q.** With HMNSVVMPRWPTLNGELGSR as the substance, how does the amyloid nucleation score read?
**A.** -0.179 ± 0.4

**Q.** With SRYWSLYGGIIVVSRSRTGR as the substance, how does the amyloid nucleation score read?
**A.** 0.45 ± 0.32

**Q.** For KWVIGRTVLGRADVRWSSGR, which amyloid nucleation score is on record?
**A.** 1.58 ± 0.46

**Q.** Which amyloid nucleation score does the source give for SHKGNPCRKIC here?
**A.** -0.392 ± 0.38

**Q.** Which amyloid nucleation score does the source give for LHESVFSWSSKLSLRHGYLR here?
**A.** 0.159 ± 0.7

**Q.** With SSFLASGL as the substance, how does the amyloid nucleation score read?
**A.** -0.529 ± 1.3

**Q.** Which amyloid nucleation score does the source give for SNFLHCIVIILWLCFNL here?
**A.** 0.53 ± 0.71

**Q.** Which amyloid nucleation score does the source give for TAALFLAMLGDYVVSNMWTT here?
**A.** inactive

**Q.** Which amyloid nucleation score does the source give for NMFMIV here?
**A.** -1.05 ± 1.3

**Q.** For ICSIITPRPGFPTVLRSMKK, which amyloid nucleation score is on record?
**A.** 0.846 ± 0.81

**Q.** For GYGIMANS, which amyloid nucleation score is on record?
**A.** -0.179 ± 0.51

**Q.** For SSSEGRWMGYGP, which amyloid nucleation score is on record?
**A.** -0.276 ± 0.53

**Q.** For MVSHKDQRIGPLLASVAHVR, which amyloid nucleation score is on record?
**A.** -1.69 ± 1.3

**Q.** Which amyloid nucleation score does the source give for CNFSQYMRVHHTSYLEPTDH here?
**A.** 3.22 ± 0.12

**Q.** With SSGFSTMYIK as the substance, how does the amyloid nucleation score read?
**A.** -0.892 ± 2.1

**Q.** Which amyloid nucleation score does the source give for VDCLGFLEHICGLGDIIKTK here?
**A.** 0.341 ± 0.25

**Q.** With GVGGLWVEDSWRQRLDSEWA as the substance, how does the amyloid nucleation score read?
**A.** -0.014 ± 0.48

**Q.** With IAVSFSVVL as the substance, how does the amyloid nucleation score read?
**A.** 5.49 ± 0.056

**Q.** Which amyloid nucleation score does the source give for PPHIRKAGMRTFMGGLGLRG here?
**A.** 0.619 ± 0.67

**Q.** Which amyloid nucleation score does the source give for TSELFYGTCGKGCPERVGGQ here?
**A.** -0.266 ± 1.6

**Q.** With WWATWRLLCIDNTACWADRW as the substance, how does the amyloid nucleation score read?
**A.** -0.177 ± 0.53

**Q.** For LLRCPYLNFGASMYLIRFCS, which amyloid nucleation score is on record?
**A.** 0.404 ± 0.53

**Q.** For LHRSQMIFMCLSVTYSAK, which amyloid nucleation score is on record?
**A.** -0.209 ± 0.47

**Q.** Which amyloid nucleation score does the source give for DCPTYWFVAKFFANWVR here?
**A.** inactive

**Q.** Which amyloid nucleation score does the source give for MWGMF here?
**A.** -0.132 ± 0.35

**Q.** Which amyloid nucleation score does the source give for FAWVDPGFLWDNLTPGTDRC here?
**A.** 0.253 ± 0.43

**Q.** Which amyloid nucleation score does the source give for YVYDSVAVHGGKTLEGEGYG here?
**A.** 0.035 ± 0.38

**Q.** With EVMVSAGVTIACSPVVIRFR as the substance, how does the amyloid nucleation score read?
**A.** 1.47 ± 0.54

**Q.** With NCPFEW as the substance, how does the amyloid nucleation score read?
**A.** -0.116 ± 0.55

**Q.** Which amyloid nucleation score does the source give for TNGRR here?
**A.** -0.691 ± 1.2

**Q.** With AVSVWYYSRVRGRG as the substance, how does the amyloid nucleation score read?
**A.** 0.025 ± 0.46

**Q.** With CIGWSNGAPRCNQGRQRDRG as the substance, how does the amyloid nucleation score read?
**A.** 0.828 ± 0.66

**Q.** Which amyloid nucleation score does the source give for GMALKLFCALT here?
**A.** 0.078 ± 0.89

**Q.** With GPILDSNKASIPIV as the substance, how does the amyloid nucleation score read?
**A.** -0.322 ± 0.96

**Q.** For SIVGLNQ, which amyloid nucleation score is on record?
**A.** 0.742 ± 0.43

**Q.** Which amyloid nucleation score does the source give for SVAIASLFFLSFNFVDIRLL here?
**A.** 0.832 ± 0.15

**Q.** For PYCFYPRCC, which amyloid nucleation score is on record?
**A.** 0.015 ± 0.85

**Q.** For VCNIPNFCQKQCLSFTTIRY, which amyloid nucleation score is on record?
**A.** 2 ± 0.12

**Q.** Which amyloid nucleation score does the source give for AFYLLF here?
**A.** -0.395 ± 0.51

**Q.** With TKGAFKVEKWSLSE as the substance, how does the amyloid nucleation score read?
**A.** -0.115 ± 0.23

**Q.** With CVFRSYQWWSSHLYFVNVCN as the substance, how does the amyloid nucleation score read?
**A.** 0.667 ± 0.68

**Q.** With LIAPGFPERCRQGRMYEF as the substance, how does the amyloid nucleation score read?
**A.** -0.234 ± 1.2
